Columns and labels:
[1] = target: T1, M. kandleri AV19 DNA polymerase family B (Mka PolB) (MK1039) (Methanopyrus kandleri AV19); test: cell-based or functional assay
T1 chain: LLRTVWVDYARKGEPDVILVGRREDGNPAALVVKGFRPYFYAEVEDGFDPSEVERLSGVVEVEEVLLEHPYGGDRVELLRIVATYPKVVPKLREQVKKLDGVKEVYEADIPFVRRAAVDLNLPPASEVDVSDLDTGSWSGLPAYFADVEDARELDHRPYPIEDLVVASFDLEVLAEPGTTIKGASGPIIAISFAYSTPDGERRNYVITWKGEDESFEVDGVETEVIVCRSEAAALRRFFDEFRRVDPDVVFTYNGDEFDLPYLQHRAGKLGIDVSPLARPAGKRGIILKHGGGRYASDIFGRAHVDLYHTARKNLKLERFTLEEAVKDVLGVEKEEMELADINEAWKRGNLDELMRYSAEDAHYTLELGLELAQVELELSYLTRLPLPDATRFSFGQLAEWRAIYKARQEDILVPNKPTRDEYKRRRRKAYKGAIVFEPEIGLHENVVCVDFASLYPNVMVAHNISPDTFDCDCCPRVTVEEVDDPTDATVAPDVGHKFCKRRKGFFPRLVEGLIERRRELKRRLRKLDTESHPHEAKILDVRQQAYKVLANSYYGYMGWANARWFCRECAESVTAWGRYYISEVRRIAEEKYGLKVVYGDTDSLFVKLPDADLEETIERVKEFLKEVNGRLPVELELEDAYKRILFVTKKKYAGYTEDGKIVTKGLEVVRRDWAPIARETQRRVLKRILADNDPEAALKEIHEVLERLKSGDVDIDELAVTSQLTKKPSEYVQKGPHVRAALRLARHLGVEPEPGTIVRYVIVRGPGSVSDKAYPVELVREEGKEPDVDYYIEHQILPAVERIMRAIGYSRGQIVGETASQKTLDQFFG

PolB = test: Interaction of polB with PCNA (primer extension assay); format: biochemical, Methanopyrus kandleri; conditions: PCNA 5.6 μM subunits, 100 mM NaCl
Method: PolB was incubated with PCNA (final concentration 5.6 μM subunits) in the presence of 100 mM NaCl. The polymerase activity was measured in the primer extension assay and compared to the activity without PCNA added. Even without clamp loader, the interaction of PCNA with PolB was detected as the initial rate of the primer extension increased 1.75 times. […] This happens, most likely because PCNA anchors polB on the PTJ and/or prevents partial melting of the PTJ duplex.

M.K. polB DNA polymerase = M.K. polB DNA polymerase (Methanopyrus kandleri, UniProt Q8TWJ5); test: Effects of media components on M.K. polB DNA polymerase activity (primer extension); format: biochemical
Sequence of M.K. polB DNA polymerase (Q8TWJ5 entry or part of it): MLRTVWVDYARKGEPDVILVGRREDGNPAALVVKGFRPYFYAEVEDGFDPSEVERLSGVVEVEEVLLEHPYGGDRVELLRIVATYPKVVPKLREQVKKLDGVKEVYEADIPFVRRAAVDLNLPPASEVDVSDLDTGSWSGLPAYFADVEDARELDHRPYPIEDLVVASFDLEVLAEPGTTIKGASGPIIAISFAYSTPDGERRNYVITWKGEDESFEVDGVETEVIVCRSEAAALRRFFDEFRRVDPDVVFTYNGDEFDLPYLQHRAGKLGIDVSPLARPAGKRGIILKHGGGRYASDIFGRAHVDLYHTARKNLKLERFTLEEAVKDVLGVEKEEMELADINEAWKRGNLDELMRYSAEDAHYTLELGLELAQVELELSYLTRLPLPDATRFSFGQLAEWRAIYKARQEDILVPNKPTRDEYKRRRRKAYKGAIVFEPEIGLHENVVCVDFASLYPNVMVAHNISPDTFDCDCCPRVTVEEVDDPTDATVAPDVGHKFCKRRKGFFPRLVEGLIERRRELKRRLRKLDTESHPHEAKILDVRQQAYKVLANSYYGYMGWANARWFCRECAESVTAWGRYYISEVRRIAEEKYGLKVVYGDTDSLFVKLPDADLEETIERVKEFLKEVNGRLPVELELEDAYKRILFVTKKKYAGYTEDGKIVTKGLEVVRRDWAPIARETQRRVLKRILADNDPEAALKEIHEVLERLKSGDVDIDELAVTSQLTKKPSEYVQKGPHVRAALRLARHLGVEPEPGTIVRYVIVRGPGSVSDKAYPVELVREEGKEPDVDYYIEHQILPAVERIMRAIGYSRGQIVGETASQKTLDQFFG
Method: DNA polymerase reaction mixtures (15-20 μl) contained dATP, dTTP, dCTP, and dGTP (1 mM each), 4.5 mM MgCl2, detergents Tween 20 and Nonidet P-40 (0.2% each), fixed concentrations of PTJ—duplex, other additions, as indicated, and appropriate amounts of polB in 30 mM Tris-HCl buffer pH 8.0 (25° C.). The background reaction mixtures contained all components except DNA polymerases. Primer extensions were carried out for a preset time at 75° C. in PTC-150 Minicycler (MJ Research, Inc.; Waltham, Mass.). 5 μl samples were removed and chilled to 4° C. followed by immediate addition of 20 μl of 20 mM EDTA. The samples were desalted by centrifugation through Sephadex G-50 spun columns, diluted, and analyzed on a ABI Prism 377 DNA sequencer (Applied BioSystems; Foster City, Calif.). For each sample, raw data were extracted from the sequencer trace files with the program Chromas 1.5 (Technelysium Pty Ltd., Australia), and the fluorescent signals were analyzed by our nonlinear regression data analysis programs written in Fortran. The programs applied Powell algorithms to approximate the signals by a number of Gaussian peaks and calculate integral fluorescent intensities for each product peak. The total amount of fluorescent products for each time of incubation was determined, and the initial rates of extension were calculated.
The next two tables (Table 4 and 5) display effects of various media components on M.K. polB DNA polymerase activity. Initial rates of primer extension reaction were measured as described by Pavlov et al., 2002.

B1: M. kandleri AV19 PCNA (MK1030), DNA polymerase sliding clamp (other)
chain: LVEFRAYQEEARYFKYAFNAAGKVVEEAPLIVTENGIVSRAMDASHIAMAVLEMPWEMFDEYEPPSDELMYGLDMEEVTRIVRRARVTDEITLEGEDEEEVIIKLGSSGYEREFRLRSIDIDDIPDEPELDFAVEVTVVPDFIQDAVRDADLVSDTVKVGAKGNTFYFKAEGERGRVIPKVQEGAEALLTFEVEEDVETAYPLDYLKDMIQAAQGAESVRIRLGQDMPLELTFRIGPAGEGKLTFYLAPRVEE
[1]
  initial rate of the primer extension: 1.75 fold
PolB
  effect on hydrolysis of the primer annealed to the duplex: suppression of hydrolysis of the primer
M.K. polB DNA polymerase
  effect on polymerase activity of PolB: increase

Reference: US20060068386A1, “Complete genome and protein sequence of the hyperthermophile methanopyrus kandleri av19 and monophyly of archael methanogens and methods of use thereof” (priority 2002, published 2006)
